# Patent publication US7901902B2, “Methods and compositions for identifying a cellular immune response against prostate cancer” (BioSante Pharmaceuticals, Inc., priority 2006, dated 2011)
# Target: HLA-A2 (Homo sapiens, UniProt P04439, D140Y/D185E/D98H/E176V/E277Q/G131W/G231S/I119V/I121R/I166T/I218V/L300P/L318F/N151K/N90K/P208A/P217A/Q86G/Q94H/R138H/R169H/T345S)
# Test: HLA-A2 peptide binding assay on T2 cells (fluorescence index, flow cytometry)
# Settings: summary of Tables 2 and 3
row,Sequence,upregulation of HLA-A2 expression (in words)
1,"SLQESGLKV (Filamin-B peptides) [Filamin B peptide # 4, 9-mer peptide selected from the filamin-B polypeptide]",moderate upregulation
2,"GLVEPVNMV (Filamin-B peptides) [Filamin B peptide # 2, 9-mer peptide selected from the filamin-B polypeptide]",moderate upregulation
3,"KLILGLVWT (Filamin-B peptides) [Filamin B peptide # 7, 9-mer peptide selected from the filamin-B polypeptide]",upregulated HLA-A2 weakly
4,"GQGDVMVFV (Filamin-B peptides) [Filamin B peptide # 6, 9-mer peptide selected from the filamin-B polypeptide]",moderate upregulation
5,"RLIALLEVL (Filamin-B peptides) [Filamin B peptide # 5, 9-mer peptide selected from the filamin-B polypeptide]",greatest upregulation
6,"LILGLVWTL (Filamin-B peptides) [Filamin B peptide # 1, 9-mer peptide selected from the filamin-B polypeptide]",greatest upregulation
7,"GLAPLEVRV (Filamin-B peptides) [Filamin B peptide # 3, 9-mer peptide selected from the filamin-B polypeptide]",greatest upregulation
